Columns and labels:
[1] = target: HLA-B4405: … pMHC complex
[2] = target: HLA-A2/… pMHC complex (NY-ESO-1 tumor specific antigen); test: BLI (forteBIO Oke), biotinylated pMHC on SA sensor, soluble TCR in solution, 1:1 fit
[3] = target: HLA-A1: … pMHC complex (MageA3 tumor specific antigen); test: as above

Substance	Kd [3] [µM]	further results
LC13 TCR with an artificial interchain disulfide bond between position 10 of TRAC*01 exon 1 and posi		Kd [1]: 10 µM
1G4 TCR with an artificial interchain disulfide bond between position 53 of TRAC*01 exon 1 and position 54 of TRBC1*01 or TRBC2*01 exon 1		Kd [2]: 6.96 µM
MGA3 TCR with an artificial interchain disulfide bond between position 89 of TRAC*01 exon 1 and position 19 of TRBC1*01 or TRBC2*01 exon 1	2.04	
MGA3 TCR with an artificial interchain disulfide bond between position 10 of TRAC*01 exon 1 and position 20 of TRBC1*01 or TRBC2*01 exon 1	3.45	
MGA3 TCR with an artificial interchain disulfide bond between position 53 of TRAC*01 exon 1 and position 54 of TRBC1*01 or TRBC2*01 exon 1	1.42	
